Assay results from the supplement of paper PMC7877785.
± gives the uncertainty stated by the source.

Experiment: self-splicing fitness, log relative to wild type (ln ratio); higher = more splicing; Tetrahymena group I intron in knt gene, E. coli kanamycin selection, DiMSum; sequences stand for … in CUCUCU…GGAGGGAAAAGUUAUCAGGCAUGCACCUGGUAGCUAGUCUUUAAACCAAUAGAUUGCAUCGGUUUAAAAGGCAAGACCGUCAAAUUGCGGGAAAGGGGUCAACAGCCGUUCAGUACCAAGUCUCAGGGGAAACUUUGAGAUGGCCUUGCAAAGGGUAUGGUAAUAAGCUGACGGACAUGGUCCUAACCACGCAGCCAAGUCCUAAGUCAACAGAUCUUCUGUUGAUAUGGAUGCAGUUCACAGACUAAAUGUCGGUCGGGGAAGAUGUAUUCUUCUCAUAAGAUAUAGUCGGACCUCUCCUUAAUGGGAGCUAGCGGAUGAAGUGAUGCAACACUGGAGCCGCUGGGAACUAAUUUGUAUGCGAAAGUAUAUUGAUUAGUUUUGGAGUACUCGUGGUCG
Method in brief: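 Pooled colonies went to amplicon sequencing on an Illumina HiSeq 2500 after six replicate transformations. The plates were LB agar with 100 μg/mL carbenicillin, 50 μM IPTG and 0.2% rhamnose, with or without 25 μg/mL kanamycin, incubated overnight at 37°C or 30°C. The E. coli BL21(DE3) library had all eight P1ex-region intron nucleotides randomised, the intron placed in the knt kanamycin-resistance gene on pET-22b(+). DiMSum fitness is the error-weighted combination of replicate fold changes, kanamycin against none, normalised to wild type.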

| Sequence | self-splicing fitness (ln) (30 °C) | self-splicing fitness (ln) (37 °C) |
| --- | --- | --- |
| CGGAAGCAAUAUUACGAGCC | -2.13 ± 0.23 | -0.454 ± 0.22 |
| CGGAAGCAAUAUUACGCGCA | -1.9 ± 0.11 | -1.08 ± 0.094 |
| CGGAAGCAAUAUUACGCGGA | -2.73 ± 0.28 | -2.93 ± 0.43 |
| CGGAAGCAAUAUUACGCUCG | -3.42 ± 0.21 | -1.97 ± 0.23 |
| CGGAAGCAAUAUUACGGACG | -3 ± 0.27 | -2.12 ± 0.44 |
| CGGAAGCAAUAUUACGGACU | -0.00733 ± 0.094 | -0.0682 ± 0.14 |
| CGGAAGCAAUAUUACGGAGC | -2.75 ± 0.26 | -1.88 ± 0.36 |
| CGGAAGCAAUAUUACGGAUG | -2.02 ± 0.073 | -0.785 ± 0.086 |
| CGGAAGCAAUAUUACGGCCU | 0.133 ± 0.15 | 0.152 ± 0.16 |
| CGGAAGCAAUAUUACGGGGA | -3.79 ± 0.26 | -2.65 ± 0.31 |
| CGGAAGCAAUAUUACGGUGA | -1.64 ± 0.16 | -2.07 ± 0.22 |
| CGGAAGCAAUAUUACGUAAU | -2.35 ± 0.19 | -1.23 ± 0.19 |
| CGGAAGCAAUAUUACGUCAC | – | -1.76 ± 0.4 |
| CGGAAGCAAUAUUACGUCUA | -0.422 ± 0.097 | -0.659 ± 0.076 |
| CGGAAGCAAUAUUACGUUAA | -3.47 ± 0.36 | -3.06 ± 0.25 |
| CGGAAGCAAUAUUACGUUCA | -0.293 ± 0.13 | 0.673 ± 0.16 |
| CGGCAGCAAUAUUACGAAGG | -1.13 ± 0.12 | 0.373 ± 0.17 |
| CGGCAGCAAUAUUACGACAU | -3.303 ± 0.021 | -1.91 ± 0.035 |
| CGGCAGCAAUAUUACGACCG | -3.76 ± 0.31 | – |
| CGGCAGCAAUAUUACGAGCU | -2.8 ± 0.17 | -1.55 ± 0.14 |
| CGGCAGCAAUAUUACGAGGU | -3.26 ± 0.19 | -1.83 ± 0.15 |
| CGGCAGCAAUAUUACGAUUG | -0.72 ± 0.055 | 0.0589 ± 0.08 |
| CGGCAGCAAUAUUACGAUUU | -3.18 ± 0.22 | -2.64 ± 0.23 |
| CGGCAGCAAUAUUACGCAUG | -2.27 ± 0.074 | -1.05 ± 0.082 |
| CGGCAGCAAUAUUACGCGGC | -2.84 ± 0.27 | -3.03 ± 0.26 |
| CGGCAGCAAUAUUACGCGUA | -1.97 ± 0.29 | -0.576 ± 0.16 |

| Sequence | self-splicing fitness (ln) (30 °C) | self-splicing fitness (ln) (37 °C) |
| --- | --- | --- |
| CGGCAGCAAUAUUACGCUCC | -4.03 ± 0.39 | -1.08 ± 0.25 |
| CGGCAGCAAUAUUACGCUCG | – | -2.93 ± 0.32 |
| CGGCAGCAAUAUUACGCUUA | -0.963 ± 0.071 | -0.184 ± 0.073 |
| CGGCAGCAAUAUUACGGAUC | -2.88 ± 0.27 | -2.04 ± 0.2 |
| CGGCAGCAAUAUUACGGAUG | -0.873 ± 0.075 | 0.507 ± 0.11 |
| CGGCAGCAAUAUUACGGCCA | -0.0175 ± 0.12 | 0.462 ± 0.16 |
| CGGCAGCAAUAUUACGGCCC | -1.31 ± 0.27 | 0.163 ± 0.21 |
| CGGCAGCAAUAUUACGGCGU | -1.6 ± 0.097 | -0.949 ± 0.1 |
| CGGCAGCAAUAUUACGGCUC | -0.945 ± 0.11 | -0.28 ± 0.15 |
| CGGCAGCAAUAUUACGGGAC | – | -2.85 ± 0.47 |
| CGGCAGCAAUAUUACGGGCC | -1.55 ± 0.2 | -1.98 ± 0.32 |
| CGGCAGCAAUAUUACGGUAG | -0.745 ± 0.076 | -0.0175 ± 0.074 |
| CGGCAGCAAUAUUACGGUCU | -0.384 ± 0.066 | 0.364 ± 0.087 |
| CGGCAGCAAUAUUACGGUGA | -3.35 ± 0.21 | -1.75 ± 0.17 |
| CGGCAGCAAUAUUACGGUGC | -2.88 ± 0.16 | -2.18 ± 0.19 |
| CGGCAGCAAUAUUACGGUUG | -2.93 ± 0.14 | -1.11 ± 0.12 |
| CGGCAGCAAUAUUACGUCGA | -3.24 ± 0.19 | -1.07 ± 0.15 |
| CGGCAGCAAUAUUACGUCGC | – | -0.603 ± 0.28 |
| CGGCAGCAAUAUUACGUGAC | -3.9 ± 0.13 | -1.22 ± 0.1 |
| CGGGAGCAAUAUUACGACGG | -1.4 ± 0.23 | -0.65 ± 0.42 |
| CGGGAGCAAUAUUACGAGAU | – | -2.17 ± 0.35 |
| CGGGAGCAAUAUUACGAGCG | -1.78 ± 0.18 | -1.19 ± 0.48 |
| CGGGAGCAAUAUUACGAGUA | -2.74 ± 0.42 | – |
| CGGGAGCAAUAUUACGCAUG | -2.83 ± 0.29 | -0.773 ± 0.21 |
| CGGGAGCAAUAUUACGCGAG | – | -2.93 ± 0.32 |
